# B1: miniCXCR4-WRAP truncated extracellular/ligand-binding part fused to designed WRAP (protein)
# chain: MEGISIYTSDNYTEEMGSGDYDSMKEPCFREENANFNKIFLPTIYSIIFLTGIVGNGLVILVMGYQKKLRSMTDKYRLHLSVADLLFVITLPFWAVDAVANWYFGNFLCKAVHVIYTVNLYSSVLILAFISLDRYLAIVHATNSQRPRKLLAEKVVYVGVWIPALLLTIPDFIFANVSEADDRYICDRFYPNDLWVVVFQFQHIMVGLILPGIVILSCYCIIISKLSHSKGHQKRKALKTTVILILAFFACWLPYYIGISIDSFILLEIIKQGCEFENTVHKWISITEALAFFHCCLNPILYAFLGAKFKTSAQHALTS
# modifications: truncated CXCR4 with designed loops fused to WRAP; biotinylated CXCL12
# Molecular target: CXCL12 (Homo sapiens, UniProt P48061)
# Experiment: BLI
# Sequence of CXCL12 (P48061 22-89): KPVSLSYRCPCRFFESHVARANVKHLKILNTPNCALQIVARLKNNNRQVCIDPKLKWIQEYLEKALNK
binder,measurement,value
B1,Kd,390 nM

# — article PMC13730216 (2026)
